According to patent publication US20190309066A1 (ARCH ONCOLOGY, published 2019):

Biological target: T1, human CD47 expressed on cells (human, UniProt Q08722 19-292)
T1 construct: also called hCD47; integrin-associated protein
Test: flow cytometry on freshly isolated human RBCs, FITC-labelled donkey anti-human antibody, MFI
Method: FIG. 7. Binding of VLX9 Humanized mAbs to Human RBCs. […] RBCs were incubated for 60 minutes at 37° C. with various concentrations of VLX9 mAbs, washed and incubated for 1 hr with FITC-labelled donkey anti-human antibody. Cells were washed and antibody binding measured using flow cytometry.
Binding activities of chimeric and humanized VLX4, VLX8, and VLX9 mAbs to human CD47 on hRBCs were also determined using flow cytometry.

T1 sequence (Q08722 other isoform, or with tags, fused parts or gaps limits assumed): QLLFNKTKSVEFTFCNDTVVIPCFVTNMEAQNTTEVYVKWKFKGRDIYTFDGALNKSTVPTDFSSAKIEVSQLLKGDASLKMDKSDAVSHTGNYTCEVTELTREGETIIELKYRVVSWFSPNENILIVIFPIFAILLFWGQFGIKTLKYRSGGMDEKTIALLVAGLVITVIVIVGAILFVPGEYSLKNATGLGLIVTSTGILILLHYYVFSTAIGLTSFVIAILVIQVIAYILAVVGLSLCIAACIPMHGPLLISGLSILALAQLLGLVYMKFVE

- EC50 (read off the curve): ~0.5 nM
B1: VLX9 IgG2 (xi) (antibody)
heavy: QVQLQQFGAELAKPGASVQMSCKASGYTFTNYWIHWVKQRPGQGLEWIGYTDPRTDYTEYNQKFKDKATLAADRSSSTAYMRLSSLTSEDSAVYYCAGGGRVGLGYWGHGSSVTVSSASTKGPSVFPLAPCSRSTSESTAALGCLVKDYFPEPVTVSWNSGALTSGVHTFPAVLQSSGLYSLSSVVTVPSSNFGTQTYTCNVDHKPSNTKVDKTVERKCCVECPPCPAPPVAGPSVFLFPPKPKDTLMISRTPEVTCVVVDVSHEDPEVQFNWYVDGVEVHNAKTKPREEQFNSTFRVVSVLTVVHQDWLNGKEYKCKVSNKGLPAPIEKTISKTKGQPREPQVYTLPPSREEMTKNQVSLTCLVKGFYPSDIAVEWESNGQPENNYKTTPPMLDSDGSFFLYSKLTVDKSRWQQGNVFSCSVMHEALHNHYTQKSLSLSPGK
light: DVFMTQTPLSLPVSLGDQASISCRSSQNIVQSNGNTYLEWYLQKPGQSPKLLIYKVFHRFSGVPDRFSGSGSGTDFTLKISRVEAEDLGVYYCFQGSHVPWTFGGGTKVEIKRTVAAPSVFIFPPSDEQLKSGTASVVCLLNNFYPREAKVQWKVDNALQSGNSQESVTEQDSKDSTYSLSSTLTLSKADYEKHKVYACEVTHQGLSSPVTKSFNRGEC
notes: murine-human chimera; also called VLX9 IgG2 chimera (xi)
